According to patent publication US20200370085A1:

Target: VEGF (UniProt P15692)
Assay: solution equilibrium titration (SET) ELISA, crude IVT product 1:400, monovalent fit

Sequence of UniProt P15692 (P15692 other isoform, or with tags, fused parts or gaps limits assumed): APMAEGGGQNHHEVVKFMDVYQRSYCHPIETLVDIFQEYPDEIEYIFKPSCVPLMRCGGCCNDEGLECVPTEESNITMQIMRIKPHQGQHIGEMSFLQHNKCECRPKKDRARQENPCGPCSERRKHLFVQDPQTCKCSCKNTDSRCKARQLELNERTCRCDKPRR

[H101Y] Avastin scFv
Kd: 11.1 pM

[N31H] Avastin scFv
Kd: 4.03 pM

[S105T] Avastin scFv
Kd: 8.99 pM
